Laboratory results from the supplement of paper PMC7877785.
± gives the uncertainty stated by the source.

Assay: self-splicing fitness, log relative to wild type (ln ratio); higher = more splicing; Tetrahymena group I intron in knt gene, E. coli kanamycin selection, DiMSum; sequences stand for … in CUCUCU…GGAGGGAAAAGUUAUCAGGCAUGCACCUGGUAGCUAGUCUUUAAACCAAUAGAUUGCAUCGGUUUAAAAGGCAAGACCGUCAAAUUGCGGGAAAGGGGUCAACAGCCGUUCAGUACCAAGUCUCAGGGGAAACUUUGAGAUGGCCUUGCAAAGGGUAUGGUAAUAAGCUGACGGACAUGGUCCUAACCACGCAGCCAAGUCCUAAGUCAACAGAUCUUCUGUUGAUAUGGAUGCAGUUCACAGACUAAAUGUCGGUCGGGGAAGAUGUAUUCUUCUCAUAAGAUAUAGUCGGACCUCUCCUUAAUGGGAGCUAGCGGAUGAAGUGAUGCAACACUGGAGCCGCUGGGAACUAAUUUGUAUGCGAAAGUAUAUUGAUUAGUUUUGGAGUACUCGUGGUCG
In short: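 The eight P1ex-region nucleotides of an intron in the knt kanamycin-resistance gene on pET-22b(+) were all randomised and the library put into E. coli BL21(DE3). Six replicate transformations were grown overnight at 37°C or 30°C on LB agar with or without 25 μg/mL kanamycin, together with 100 μg/mL carbenicillin, 50 μM IPTG and 0.2% rhamnose. Colonies were pooled and amplicon-sequenced on an Illumina HiSeq 2500. Fitness from DiMSum is the error-weighted combination of wild-type-normalised replicate fold changes, kanamycin over none.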

| Sequence | self-splicing fitness (ln) (30 °C) | self-splicing fitness (ln) (37 °C) |
| --- | --- | --- |
| UAAGAGCAAUAUUACGUUUG | -2.33 ± 0.096 | -1.07 ± 0.12 |
| UAAUAGCAAUAUUACGACUC | -3.23 ± 0.25 | -1.03 ± 0.23 |
| UAAUAGCAAUAUUACGACUU | -0.84 ± 0.1 | -0.376 ± 0.094 |
| UAAUAGCAAUAUUACGAGCG | -1.02 ± 0.1 | -0.261 ± 0.15 |
| UAAUAGCAAUAUUACGAGGG | -3.81 ± 0.39 | -1.73 ± 0.23 |
| UAAUAGCAAUAUUACGAGGU | -3.06 ± 0.2 | -2.65 ± 0.26 |
| UAAUAGCAAUAUUACGAUAA | -3.33 ± 0.2 | -1.78 ± 0.16 |
| UAAUAGCAAUAUUACGAUGC | -3.45 ± 0.3 | – |
| UAAUAGCAAUAUUACGAUGU | -2.78 ± 0.18 | -2.48 ± 0.19 |
| UAAUAGCAAUAUUACGCAGA | – | -0.288 ± 0.16 |
| UAAUAGCAAUAUUACGCCGA | -1.01 ± 0.29 | -1.51 ± 0.44 |
| UAAUAGCAAUAUUACGCUUU | -3.54 ± 0.44 | -1.5 ± 0.2 |
| UAAUAGCAAUAUUACGGCCA | -0.34 ± 0.17 | 0.175 ± 0.18 |
| UAAUAGCAAUAUUACGGCUU | -0.901 ± 0.096 | -0.115 ± 0.13 |
| UAAUAGCAAUAUUACGGGGC | -3.12 ± 0.31 | -2.84 ± 0.31 |
| UAAUAGCAAUAUUACGGGUC | -3.33 ± 0.3 | -1.58 ± 0.28 |
| UAAUAGCAAUAUUACGUAAG | -2.47 ± 0.21 | -0.977 ± 0.15 |
| UAAUAGCAAUAUUACGUACA | -1.05 ± 0.11 | -0.0465 ± 0.13 |
| UAAUAGCAAUAUUACGUAUC | – | -2.68 ± 0.48 |
| UAAUAGCAAUAUUACGUAUU | -4.09 ± 0.28 | -1.95 ± 0.16 |
| UAAUAGCAAUAUUACGUCAA | -2.33 ± 0.17 | -1.77 ± 0.15 |
| UAAUAGCAAUAUUACGUGCG | 0.0578 ± 0.065 | -0.0439 ± 0.091 |
| UAAUAGCAAUAUUACGUUGA | -2.67 ± 0.2 | -2.54 ± 0.18 |
| UAAUAGCAAUAUUACGUUGU | -3.53 ± 0.18 | -1.98 ± 0.19 |
| UACAAGCAAUAUUACGAAUG | -0.773 ± 0.065 | -0.319 ± 0.086 |

| Sequence | self-splicing fitness (ln) (30 °C) | self-splicing fitness (ln) (37 °C) |
| --- | --- | --- |
| UACAAGCAAUAUUACGACAC | -3.15 ± 0.18 | -1.38 ± 0.15 |
| UACAAGCAAUAUUACGACUC | -2.6 ± 0.14 | -1.2 ± 0.16 |
| UACAAGCAAUAUUACGAUCC | -3.27 ± 0.27 | -1.78 ± 0.24 |
| UACAAGCAAUAUUACGCAAU | -3.44 ± 0.21 | -2.47 ± 0.23 |
| UACAAGCAAUAUUACGCAGC | -4 ± 0.42 | -2.63 ± 0.39 |
| UACAAGCAAUAUUACGCCUU | -0.984 ± 0.091 | -1.04 ± 0.092 |
| UACAAGCAAUAUUACGCGAG | -1.62 ± 0.11 | -0.536 ± 0.1 |
| UACAAGCAAUAUUACGGAUU | -3.61 ± 0.15 | -0.762 ± 0.09 |
| UACAAGCAAUAUUACGGCCG | -0.0815 ± 0.085 | 0.427 ± 0.13 |
| UACAAGCAAUAUUACGGCGA | -0.244 ± 0.072 | 0.0939 ± 0.087 |
| UACAAGCAAUAUUACGGUAG | -2.15 ± 0.089 | -1.43 ± 0.086 |
| UACAAGCAAUAUUACGUACC | -2.83 ± 0.19 | -1.93 ± 0.19 |
| UACAAGCAAUAUUACGUAUU | -4.29 ± 0.19 | -2.32 ± 0.13 |
| UACAAGCAAUAUUACGUCAC | -3.37 ± 0.2 | -2.41 ± 0.17 |
| UACAAGCAAUAUUACGUCGU | -3.83 ± 0.18 | -2.04 ± 0.17 |
| UACAAGCAAUAUUACGUUCC | -3.65 ± 0.28 | -2.58 ± 0.25 |
| UACCAGCAAUAUUACGACAC | -2.34 ± 0.13 | -1.16 ± 0.15 |
| UACCAGCAAUAUUACGAGUC | -1.59 ± 0.12 | -1.24 ± 0.12 |
| UACCAGCAAUAUUACGCACA | -0.477 ± 0.088 | 0.0379 ± 0.092 |
| UACCAGCAAUAUUACGCGAC | -3.1 ± 0.11 | -1.58 ± 0.12 |
| UACCAGCAAUAUUACGCGCG | 0.11 ± 0.068 | 0.573 ± 0.09 |
| UACCAGCAAUAUUACGCGGG | -3.61 ± 0.21 | -1.31 ± 0.17 |
| UACCAGCAAUAUUACGCUAG | -1.76 ± 0.074 | -1.03 ± 0.083 |
| UACCAGCAAUAUUACGCUCG | -0.415 ± 0.093 | -0.203 ± 0.11 |
| UACCAGCAAUAUUACGGACU | -0.102 ± 0.073 | 0.199 ± 0.098 |

| Sequence | self-splicing fitness (ln) (30 °C) | self-splicing fitness (ln) (37 °C) |
| --- | --- | --- |
| UACCAGCAAUAUUACGGAGU | -3.23 ± 0.13 | -2.4 ± 0.17 |
| UACCAGCAAUAUUACGGCGU | -0.619 ± 0.055 | -0.341 ± 0.072 |
| UACCAGCAAUAUUACGGUAG | -2.15 ± 0.086 | -1.16 ± 0.083 |
| UACCAGCAAUAUUACGGUCU | -0.501 ± 0.056 | 0.24 ± 0.067 |
| UACCAGCAAUAUUACGUACG | -0.42 ± 0.12 | -0.594 ± 0.15 |
| UACCAGCAAUAUUACGUCCA | -0.321 ± 0.081 | 0.176 ± 0.091 |
| UACCAGCAAUAUUACGUCUU | -1.99 ± 0.08 | -0.209 ± 0.086 |
| UACCAGCAAUAUUACGUGGG | -3.76 ± 0.11 | -2.52 ± 0.1 |
| UACGAGCAAUAUUACGAACA | -2.11 ± 0.27 | -2.13 ± 0.29 |
| UACGAGCAAUAUUACGAAUA | -3.28 ± 0.47 | -2.87 ± 0.48 |
| UACGAGCAAUAUUACGAAUG | -2.56 ± 0.12 | -1.68 ± 0.15 |
| UACGAGCAAUAUUACGACGU | -2.08 ± 0.23 | -2.12 ± 0.27 |
| UACGAGCAAUAUUACGAGAA | -2.33 ± 0.35 | – |
| UACGAGCAAUAUUACGAUGC | – | -2.04 ± 0.33 |
| UACGAGCAAUAUUACGCACA | -3.08 ± 0.26 | -1.29 ± 0.21 |
| UACGAGCAAUAUUACGCAUA | -3.17 ± 0.19 | -0.975 ± 0.13 |
| UACGAGCAAUAUUACGCCUC | – | -2.06 ± 0.34 |
| UACGAGCAAUAUUACGCUAU | -2.4 ± 0.14 | -3.49 ± 0.29 |
| UACGAGCAAUAUUACGCUUC | -2.53 ± 0.25 | -1.32 ± 0.3 |
| UACGAGCAAUAUUACGGCGA | -1.39 ± 0.15 | -0.508 ± 0.15 |
| UACGAGCAAUAUUACGGGAG | -3.43 ± 0.22 | -2.72 ± 0.39 |
| UACGAGCAAUAUUACGGGUC | -3.23 ± 0.26 | -3.06 ± 0.43 |
| UACGAGCAAUAUUACGGUCG | -0.828 ± 0.076 | -0.0425 ± 0.099 |
| UACGAGCAAUAUUACGUAAA | -3.61 ± 0.29 | -2.84 ± 0.26 |
| UACGAGCAAUAUUACGUAUG | -3.49 ± 0.23 | -3.34 ± 0.24 |

| Sequence | self-splicing fitness (ln) (30 °C) | self-splicing fitness (ln) (37 °C) |
| --- | --- | --- |
| UACGAGCAAUAUUACGUCAA | – | -2.31 ± 0.46 |
| UACGAGCAAUAUUACGUGGG | -3.25 ± 0.14 | -2.88 ± 0.19 |
| UACGAGCAAUAUUACGUUGU | -3.36 ± 0.16 | -2.68 ± 0.18 |
| UACUAGCAAUAUUACGAAAC | – | -2.1 ± 0.32 |
| UACUAGCAAUAUUACGAAGA | -2.32 ± 0.19 | -1.86 ± 0.25 |
| UACUAGCAAUAUUACGAAUC | -2.81 ± 0.18 | -3.38 ± 0.35 |
| UACUAGCAAUAUUACGACCA | 0.122 ± 0.088 | -0.816 ± 0.1 |
| UACUAGCAAUAUUACGAGGU | -3.47 ± 0.42 | -2 ± 0.29 |
| UACUAGCAAUAUUACGAUAG | -1.44 ± 0.12 | -0.923 ± 0.14 |
| UACUAGCAAUAUUACGAUCU | -1.31 ± 0.13 | -0.847 ± 0.14 |
| UACUAGCAAUAUUACGAUUU | -2.36 ± 0.12 | -0.92 ± 0.15 |
| UACUAGCAAUAUUACGCCAA | 0.284 ± 0.44 | -1.02 ± 0.25 |
| UACUAGCAAUAUUACGGACC | – | -1.13 ± 0.33 |
| UACUAGCAAUAUUACGGCAA | -0.353 ± 0.12 | 0.301 ± 0.12 |
| UACUAGCAAUAUUACGGGAA | -1.95 ± 0.13 | -0.547 ± 0.1 |
| UACUAGCAAUAUUACGGGCC | -3.27 ± 0.17 | -3.17 ± 0.23 |
| UACUAGCAAUAUUACGGUCA | 0.103 ± 0.086 | 0.31 ± 0.083 |
| UACUAGCAAUAUUACGGUGU | -3.74 ± 0.23 | -2.65 ± 0.29 |
| UACUAGCAAUAUUACGUAAU | -2.63 ± 0.17 | -1.93 ± 0.22 |
| UACUAGCAAUAUUACGUAGA | -1.84 ± 0.11 | -1.95 ± 0.16 |
| UACUAGCAAUAUUACGUGUU | -3.16 ± 0.15 | -0.975 ± 0.13 |
| UACUAGCAAUAUUACGUUAA | -2.1 ± 0.18 | -1.43 ± 0.18 |
| UAGAAGCAAUAUUACGAUAA | -1.05 ± 0.11 | -0.854 ± 0.12 |
